Values of other authors as cited in publication PMC3416887.

Biological target: FibP (Homo sapiens) (UniProt P02679)

Kd: 0.63 µM
Substance: thrombin (from UniProt P00734)
